Holding throughout (test): cell-based or functional assay
Assay [1] addresses CD19 (UniProt P15391).
Assay [2] deals with CD20 (human) (UniProt P11836).
Assay [3] addresses CD19 (UniProt P15391). The source holds these as a separate data set.
Assay [4] addresses CD20 (human) (UniProt P11836). This is another data set of the same source.
Assay [5] concerns the target CD19 (UniProt P15391). This is another data set of the same source.
The target in assay [6] is CD20 (human) (UniProt P11836). This is another data set of the same source.
The target of assay [7] is CD19 (UniProt P15391). The source holds these as a separate data set.
In assay [8] the target is CD20 (human) (UniProt P11836). The source holds these as a separate data set.

Where two headings read alike, the source gives them in different places. Where only a bound is given, the exact number is not on record here.

Chain of UniProt P11836 (P11836 whole entry): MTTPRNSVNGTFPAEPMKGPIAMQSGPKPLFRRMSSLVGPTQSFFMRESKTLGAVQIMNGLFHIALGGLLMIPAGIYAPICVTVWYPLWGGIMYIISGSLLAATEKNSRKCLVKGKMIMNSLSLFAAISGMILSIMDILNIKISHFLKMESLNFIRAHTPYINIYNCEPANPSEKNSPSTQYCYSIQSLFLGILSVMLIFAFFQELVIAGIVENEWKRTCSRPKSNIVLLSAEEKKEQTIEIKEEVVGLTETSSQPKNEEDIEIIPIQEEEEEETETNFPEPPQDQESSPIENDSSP
Chain of UniProt P15391 (P15391 20-556 limits assumed): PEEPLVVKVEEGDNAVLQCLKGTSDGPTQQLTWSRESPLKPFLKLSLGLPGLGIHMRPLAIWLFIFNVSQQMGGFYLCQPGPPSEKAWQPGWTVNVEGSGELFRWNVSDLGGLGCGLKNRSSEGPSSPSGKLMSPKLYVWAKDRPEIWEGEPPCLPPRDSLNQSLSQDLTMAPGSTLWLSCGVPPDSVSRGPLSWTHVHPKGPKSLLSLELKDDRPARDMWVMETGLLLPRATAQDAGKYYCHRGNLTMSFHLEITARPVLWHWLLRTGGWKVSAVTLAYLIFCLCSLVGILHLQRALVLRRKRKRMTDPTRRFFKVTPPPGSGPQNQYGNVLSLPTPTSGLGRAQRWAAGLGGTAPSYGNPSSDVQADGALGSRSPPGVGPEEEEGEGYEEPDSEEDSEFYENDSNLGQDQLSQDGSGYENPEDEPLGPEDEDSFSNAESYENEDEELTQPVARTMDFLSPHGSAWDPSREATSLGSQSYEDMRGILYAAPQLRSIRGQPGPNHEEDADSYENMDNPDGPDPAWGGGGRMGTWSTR

With C2B8-CD828Z, in the assay with CD19 [1], the IFNγ release (ELISA), overnight co-culture with CD19-K562 turned out to be 1050 pg/mL and the IL-2 release (ELISA), overnight co-culture with CD19-K562 is below 16 pg/mL. In the assay with CD20 (human) [2], this substance displayed an IFNγ release (ELISA), overnight co-culture with CD20-K562 of 56700 pg/mL; an IFNγ release (ELISA), overnight co-culture with Nalm6 of 1290 pg/mL; an IFNγ release (ELISA), overnight co-culture with ST486 of 14300 pg/mL; an IFNγ release (ELISA), overnight co-culture with Toledo of 7770 pg/mL. Further, in the assay with CD20 (human) [2], the IL-2 release (ELISA), overnight co-culture with CD20-K562 was 4620 pg/mL; the IL-2 release (ELISA), overnight co-culture with Nalm6 was below 16 pg/mL; the IL-2 release (ELISA), overnight co-culture with ST486 was determined as 215 pg/mL; the IL-2 release (ELISA), overnight co-culture with Toledo was found to be 104 pg/mL. This substance returned an IFNγ release (ELISA), overnight co-culture with CD19-K562 with CD19 [3] of 55 pg/mL. Also, in the assay with CD20 (human) [4], the IFNγ release (ELISA), overnight co-culture with CD20-K562 worked out at 36500 pg/mL; the IFNγ release (ELISA), overnight co-culture with Nalm6 was 800 pg/mL; the IFNγ release (ELISA), overnight co-culture with ST486 amounted to 9070 pg/mL; the IFNγ release (ELISA), overnight co-culture with Toledo is 6590 pg/mL.
In the assay with CD19 [5], Hu19-CD828Z came in with an IFNγ release (ELISA), overnight co-culture with CD19-K562 of 13300 pg/mL; an IFNγ release (ELISA), overnight co-culture with Nalm6 of 6520 pg/mL; an IFNγ release (ELISA), overnight co-culture with ST486 of 1430 pg/mL. This substance also came in with an IFNγ release (ELISA), overnight co-culture with CD20-K562 with CD20 (human) [6] of 808 pg/mL. Besides, in the assay with CD19 [1], the IFNγ release (ELISA), overnight co-culture with CD19-K562 is 21200 pg/mL; the IFNγ release (ELISA), overnight co-culture with Nalm6 came to 6940 pg/mL; the IFNγ release (ELISA), overnight co-culture with ST486 is 745 pg/mL; the IFNγ release (ELISA), overnight co-culture with SU-DHL-4 is 2280 pg/mL. In the assay with CD19 [1], the IFNγ release (ELISA), overnight co-culture with Toledo is 4570 pg/mL; the IL-2 release (ELISA), overnight co-culture with CD19-K562 is 616 pg/mL; the IL-2 release (ELISA), overnight co-culture with Nalm6 was 111 pg/mL; the IL-2 release (ELISA), overnight co-culture with ST486 was below 16 pg/mL. In the assay with CD19 [1], this substance registered an IL-2 release (ELISA), overnight co-culture with SU-DHL-4 below 16 pg/mL and an IL-2 release (ELISA), overnight co-culture with Toledo of 55 pg/mL. In the assay with CD20 (human) [2], this substance yielded an IFNγ release (ELISA), overnight co-culture with CD20-K562 of 43 pg/mL and an IL-2 release (ELISA), overnight co-culture with CD20-K562 below 16 pg/mL. In the assay with CD19 [3], this substance returned an IFNγ release (ELISA), overnight co-culture with CD19-K562 of 31900 pg/mL; an IFNγ release (ELISA), overnight co-culture with Nalm6 of 5700 pg/mL; an IFNγ release (ELISA), overnight co-culture with ST486 of 3610 pg/mL; an IFNγ release (ELISA), overnight co-culture with SU-DHL-4 of 5190 pg/mL. The substance also yielded an IFNγ release (ELISA), overnight co-culture with Toledo with CD19 [3] of 6470 pg/mL. The substance further showed an IFNγ release (ELISA), overnight co-culture with CD20-K562 with CD20 (human) [4] of 21 pg/mL. Moreover, the IFNγ release (ELISA), overnight co-culture with CD19-K562 with CD19 [7] came to 13900 pg/mL. The substance further gave an IFNγ release (ELISA), overnight co-culture with CD20-K562 with CD20 (human) [8] of 118 pg/mL.
Regarding Human IgG (antibody), in the assay with CD20 (human) [2], the IFNγ release by Hu1928-2.1.2BB T cells with ST486 CD19-/- cells, human IgG at 0 ug/ml was determined as 6490 pg/mL; the IFNγ release by Hu1928-2.1.2BB T cells with ST486 CD19-/- cells, human IgG at 6.2 ug/ml was 5840 pg/mL; the IFNγ release by Hu1928-2.1.2BB T cells with ST486 CD19-/- cells, human IgG at 12.5 ug/ml was found to be 5590 pg/mL; the IFNγ release by Hu1928-2.1.2BB T cells with ST486 CD19-/- cells, human IgG at 25 ug/ml is 5470 pg/mL. Also, in the assay with CD20 (human) [2], the IFNγ release by Hu1928-2.1.2BB T cells with ST486 CD19-/- cells, human IgG at 50 ug/ml amounted to 6510 pg/mL and the IFNγ release by Hu1928-2.1.2BB T cells with ST486 CD19-/- cells, human IgG at 100 ug/ml stood at 5920 pg/mL.

The record behind these values is patent US20210363245A1.
